Test results: US7011940

Molecular target: ER peptide mimic
Test: immunostaining of ER peptide mimic spots on a membrane, colour scored 1-4+

In the case of “1D5 anti-human estrogen receptor mouse monoclonal antibody”, the Staining intensity (1-4+) is reported as 4 1-4+ scale.
